From patent US12297265B2, “Antibody and use thereof” (SICHUAN KELUN-BIOTECH BIOPHARMACEUTICAL CO., LTD., priority 2018, dated 2025)
Marks after values point to notes of the source that are not given here.

Experiments:
human Claudin18.2 [1] = target: T1, human Claudin18.2 (Homo sapiens, UniProt P56856); test: FACS affinity of chimeric antibodies to Ba/F3-Claudin18.2 cells; assay type: binding; set-up: expressed in transfected cells; host or cells: Ba/F3 (BaF/3, DSMZ ACC300), hygromycin-selected monoclonal line
Text: The amino acid sequence of the light chain variable region of 1E9.2, 2C6.9, 6B9.22, 9C8.1, 16A9.11, 19G10.14 or 19H11.6 was linked to the amino acid sequence of the light chain constant region κ (SEQ ID NO: 43) respectively; the amino acid sequence of the heavy chain variable region was linked to the amino acid sequence of IgG1 heavy chain constant region (SEQ ID NO: 42) respectively, to construct the chimeric antibody. Codon optimized cDNA was synthesized and cloned to pcDNA3.4 (synthesized by Nanjing Genscript Biotech Corporation). The pcDNA3.4 plasmids coding the light chain and heavy chain of each antibody were co-transfected to Expi293F cells (purchased from Thermo Fisher). The antibodies were purified from culture supernatant by protein A (MabSelect SuRe, GE). And the purified chimeric antibodies were named 1E9.2-hz00, 2C6.9-hz00, 6B9.22-hz00, 9C8.1-hz00, 16A9.11-hz00, 19G10.14-hz00 and 19H11.6-hz00.
The affinity of the anti-Claudin18.2 chimeric antibodies to Ba/F3-Claudin18.2 cells were determined. […] The cells were then analyzed by FACS.

human Claudin18.2 [2] = target: T1, human Claudin18.2; test: Flow cytometry affinity to HEK293T-Claudin 18.2 cells; assay type: binding; set-up: expressed in transfected cells
Protocol: The affinity of 2C6.9-hz21 to human claudin 18.2 on cell membrane was detected using HEK293T-Claudin 18.2 cells, as follows. HEK293T-Claudin 18.2 cells were detached and centrifuged, followed by washing for twice with PBS. And then the cells were resuspended in PBS containing 1% BSA and were plated into 96-well tip bottom plate at 300000 cells per well in a volume of 50 μl for 20 wells in total. 2C6.9-hz21 or IMAB362 antibody was then added with 11 concentrations starting from 1000 nM with three-fold dilution. Human IgG was served as negative control. The reactions were mixed well and incubated for 1 h at 4° C. in the dark. Following by three times of washing with PBS, the FITC-labelled anti-human Fc secondary antibody (Biolegend, 409322) was added and incubated for 0.5h in the dark. Detection was performed by flow cytometry (Beckman, Cytoflex) after washing for three times with PBS.

[3] = system: KATOIII-Claudin 18.2 cells; test: NK cell mediated ADCC on KATOIII-Claudin 18.2 cells (LDH); assay type: cell-based; settings: KATOIII-Claudin 18.2 target cells, NK92MI-CD16a effector cells
Protocol: (§1) The steps were as follows: HEK293T-Claudin 18.2, L929-Claudin 18.2, KATOIII-Claudin 18.2 and NUGC-4 cells were harvested and centrifuged followed by adjustment of cell density. 1×10^4/well of cells were plated on a plate and incubated overnight. The medium was removed on the next day. NK92MI-CD16a cells (Huabo Biopharm) were centrifuged, resuspended in MEMA medium and adjusted to 1×10^6/mL, then 50 μL/well cells were added to the corresponding wells. […] For HEK293T-Claudin18.2, L929-Claudin18.2 and KATOIII-Claudin18.2 cells, ten antibody concentrations were tested, starting from 40 μg/mL with 5-fold dilution. For NUGC-4 cells, eleven antibody concentrations were tested, starting from 2 mg/mL with 5-fold dilution. 50 μL/well of the diluted antibodies were added to the corresponding wells and the reactions were left to stand in incubator at 37° C., 5% CO2 and incubated for 5.5h. Lysis buffer was then added to the positive control well and incubated for another 0.5h. 50 μL/well of Lactate Dehydrogenase (LDH) detection agent (DOJINDO LABORATORISE, CK12) were added to the wells and the absorbance at 490 nm were taken every 10 min on a plate reader (MD, SpectraMax M2). The results were imported into Graphpad Prism for curve fitting.

[4] = system: HEK293T-Claudin 18.2 cells; test: CDC killing of HEK293T-Claudin 18.2 cells (guinea pig serum, CCK8); assay type: cell-based; settings: 20% guinea pig serum, 3 h
Protocol: The procedure is described as follows: HEK293T-Claudin 18.2 cells were harvested and centrifuged followed by adjustment of cell density. 5×10^4/well of cells were plated on a plate and incubated overnight. […] Starting from 20 μg/mL, 10 concentrations were prepared with two-fold dilution. The original cell culture media for HEK293T-Claudin 18.2 cells was removed, and the antibody dilutions were added to the corresponding wells, 100 μL/well. 10 μl/well lysis buffer was provided as the positive control. The reactions were left to stand in incubator at 37° C., 5% CO2 and incubated for 3 h. Then, CCK8 (Rhinogen, QDY-003-D) was added at 20 μl/well and allowed to react for 2h. Absorbance at 450 nm were taken on a plate reader (MD, SpectraMax M2). The results were subjected to curve fitting by Graphpad Prism.

L929-Claudin 18.2 cells = test: NK cell mediated ADCC on L929-Claudin 18.2 cells (LDH); assay type: cell-based; settings: L929-Claudin 18.2 target cells, NK92MI-CD16a effector cells
Protocol: as §1

human Claudin18.2 [5] = target: T1, human Claudin18.2; test: Affinity of chimeric and humanized antibodies to Ba/F3-Claudin 18.2 cells (IntelliCyt); assay type: binding; set-up: expressed in transfected cells; host or cells: Ba/F3 (BaF/3, DSMZ ACC300), hygromycin-selected monoclonal line
Text: In order to evaluate the anti-Claudin18.2 humanized antibodies, codon optimized cDNAs of the heavy chains and the light chains of the candidate humanized antibodies from Example 6 were synthesized and ligated into pcDNA3.4 (by Nanjing Genscript Biotech Corporation). Expi293F cells (purchased from Thermo Incorporation) were co-transfected with pcDNA3.4 coding the heavy chain and light chain of each antibody. The antibodies were purified from the supernatant using protein A (MabSelect SuRe, GE). The affinity of the humanized antibodies to Claudin18.2 was determined using Ba/F3-Claudin18.2 cells which over-expressed human Claudin18.2. Ba/F3-Claudin18.2 cells (60000 in 10 ul buffer) were incubated with purified humanized antibodies on ice for 30 min, followed by washing with buffer (PBS+2% FBS) twice and addition of Alexa647-labeled goat-anti-human IgG Fc antibody (1:500 dilution). The cells were incubated on ice for another 30 min and analyzed by IntelliCyt.

Substance: IMAB362: Zolbetuximab (IMAB362) developed by Astellas, human-mouse chimeric IgG1 antibody targeting Claudin 18.2; control antibody, sequences from CN 101312989 B [reference compound]
- Max MFI (human Claudin18.2 [1]): 8.97 ×10^6
- Max MFI (human Claudin18.2 [2]): 156715.7
- Max. Cytotoxicity [3]: 49%
- maximal killing rate (CDC) [4]: about 70%
- Max. Cytotoxicity (L929-Claudin 18.2 cells): 52%
- Max MFI (human Claudin18.2 [5]): 4.99* ×10^6
